Assay results taken from US20240360195A1 (HELMHOLTZ ZENTRUM M NCHEN DEUTSCHES FORSCHUNGSZENTRUM F R …, published 2024).

Target: T1, human carbonic anhydrase XII (CA12) on A549 lung cancer cells (human, UniProt O43570 25-354)
T1 construct: whole, on cells; No recombinant protein was used; also called CA-XII; CA XII
Test: flow cytometry on A549 cells, serial dilution, Cy5-labeled donkey anti-human IgG secondary, pH 7.4
Experimental: 50.000 A549 cells were incubated with a serial dilution of Monomers or Dimers (6A10). After washing, cells were incubated with a Cy5-labeled secondary antibody (donkey anti-human IgG light and heavy chain). Binding of the secondary antibody was analyzed with a BD FACSCanto and the DIVA software. RU=relative light units.
After washing, cells were incubated with a Cy5-labeled secondary antibody (donkey anti-human IgG light and heavy chain). Binding of the secondary antibody was analyzed with a BD FACSCanto and the DIVA software. RU=relative light units.
CA12-positive A549 cells were incubated with different amounts of Fab6A10 dimers or Fab6A 10 monomers at the indicated pH, followed by an incubation of a suitable Cy5-labeled secondary antibody at neutral pH (approx. 7.2).

T1 sequence (O43570 25-354): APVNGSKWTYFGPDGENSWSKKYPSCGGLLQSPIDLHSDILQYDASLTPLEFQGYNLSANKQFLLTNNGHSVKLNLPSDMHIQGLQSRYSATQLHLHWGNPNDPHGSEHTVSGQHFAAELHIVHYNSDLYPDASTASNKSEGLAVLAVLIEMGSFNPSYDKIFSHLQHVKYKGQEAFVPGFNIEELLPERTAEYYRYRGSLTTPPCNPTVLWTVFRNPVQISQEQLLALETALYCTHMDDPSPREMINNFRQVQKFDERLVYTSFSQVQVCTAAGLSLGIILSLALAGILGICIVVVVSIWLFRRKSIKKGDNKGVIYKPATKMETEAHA

binding result: binds
B1: Fab6A10 dimer (other)
heavy: QVQLKESGPGLVQPSETLSLTCTVSGFSLTTYSVSWVRQPSGKGPEWMGRMWYDGDTVYNSALKSRLSISRDTSKNQVFLKMNSLETDETGTYYCTRDFGYFDGSSPFDYWGQGVMVTVSSASTKGPSVFPLAPSSKSTSGGTAALGCLVKDYFPEPVTVSWNSGALTSGVHTFPAVLQSSGLYSLSSVVTVPSSSLGTQTYICNVNHKPSNTKVDKKVEPKSCDKTHT
light: RCPVDIVLTQSPATLSVTPGESVSLSCRASQGISTSIHWYQQKSNESPRLLIKFASQSISGIPSRFSGSGSGTDFTLSINRVESEDFSVYFCQQTYSLPYTFGAGTKLELKRTVAAPSVFIFPPSDEQLKSGTASVVCLLNNFYPREAKVQWKVDNALQSGNSQESVTEQDSKDSTYSLSSTLTLSKADYEKHKVYACEVTHQGLSSPVTKSFNRGEC
modifications: additional non-naturally occurring cysteine at the N-terminus of the VL region (N-terminus RCPVDIVLTQ..., SEQ ID NO: 18) forms a disulfide bond with the same cysteine of the second Fab monomer
notes: also called 6A10 Fab dimers; 6A10Fab dimers
